According to publication PMC3973321 (Nucleic Acids Research, 2014):

Molecular target: mitochondrial RNA polymerase (POLRMT), residues 42-1230 (human, UniProt O00411 42-1230)
Test: ITC

mitochondrial RNA polymerase (POLRMT), residues 42-1230, sequence (O00411 42-1230): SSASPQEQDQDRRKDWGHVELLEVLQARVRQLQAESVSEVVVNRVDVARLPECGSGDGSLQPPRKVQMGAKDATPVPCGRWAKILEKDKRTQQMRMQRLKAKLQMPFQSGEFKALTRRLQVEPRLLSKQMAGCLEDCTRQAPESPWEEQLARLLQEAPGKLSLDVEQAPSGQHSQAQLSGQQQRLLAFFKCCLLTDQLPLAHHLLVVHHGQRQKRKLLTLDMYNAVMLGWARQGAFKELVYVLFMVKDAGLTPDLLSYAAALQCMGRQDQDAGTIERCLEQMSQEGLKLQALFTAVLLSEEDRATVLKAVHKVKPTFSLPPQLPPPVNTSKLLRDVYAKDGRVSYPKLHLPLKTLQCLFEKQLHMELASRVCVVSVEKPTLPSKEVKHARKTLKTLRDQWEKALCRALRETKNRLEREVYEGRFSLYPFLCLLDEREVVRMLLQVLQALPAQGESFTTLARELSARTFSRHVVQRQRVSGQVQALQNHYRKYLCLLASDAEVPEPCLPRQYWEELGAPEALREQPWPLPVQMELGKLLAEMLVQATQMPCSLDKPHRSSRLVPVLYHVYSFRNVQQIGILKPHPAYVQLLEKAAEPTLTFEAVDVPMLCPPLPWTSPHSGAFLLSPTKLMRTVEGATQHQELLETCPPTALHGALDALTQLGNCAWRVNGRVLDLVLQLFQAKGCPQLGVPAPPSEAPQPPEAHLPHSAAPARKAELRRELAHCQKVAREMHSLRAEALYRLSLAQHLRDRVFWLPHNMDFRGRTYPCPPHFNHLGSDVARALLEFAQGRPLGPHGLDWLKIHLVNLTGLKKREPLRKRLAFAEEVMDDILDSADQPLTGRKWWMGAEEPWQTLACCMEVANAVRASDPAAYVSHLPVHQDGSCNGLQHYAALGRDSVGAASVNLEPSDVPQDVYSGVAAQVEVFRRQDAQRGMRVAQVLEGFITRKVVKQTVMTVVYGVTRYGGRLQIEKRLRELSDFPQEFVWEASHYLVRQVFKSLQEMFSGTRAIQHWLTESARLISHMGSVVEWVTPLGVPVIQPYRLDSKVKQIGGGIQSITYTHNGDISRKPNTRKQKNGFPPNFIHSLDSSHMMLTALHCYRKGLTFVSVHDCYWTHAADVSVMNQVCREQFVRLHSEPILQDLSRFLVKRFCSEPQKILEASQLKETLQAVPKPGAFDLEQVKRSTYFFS

Kd: 4.6 µM
dH: 11.1 kcal/mol
B1: TFAM, residues 43-246 (natural protein)
chain: SSVLASCPKKPVSSYLRFSKEQLPIFKAQNPDAKTTELIRRIAQRWRELPDSKKKIYQDAYRAEWQVYKEEISRFKEQLTPSQIMSLEKEIMDKHLKRKAMTKKKELTLLGKPKRPRSAYNVYVAERFQEAKGDSPQEKLKTVKENWKNLSDSEKELYIQHAKEDETRYHNEMKSWEEQMIEVGRKDLLRRTIKKQRKYGAEEC
